Assays:
[1] = biological target: IMPDH1(595)-S477D (human); assay: negative stain EM
[2] = biological target: IMPDH1(595)-S477D (human); assay: cryo-EM structure

IMPDH1(595)-S477D (enzyme)
stoichiometry N [1]: 8 | stoichiometry N [2]: 8
